We go through one protein from ChEMBL document CHEMBL1126199, “(R)-(-)- and (S)-(+)-adenallene: synthesis, absolute configuration, enantioselectivity of antiretroviral effect, and enzymic deamination” (J Med Chem, 1992).

Substrate in the data set: Nc1ncnc2c1ncn2C=C=CCO
As to the kind of experiment: Vmax by adenosine deaminase.

Values joined by “and” are separate entries in the source; they are usually repeats but may differ in a detail not shown here. Equal entries are not always repeated.

B1: Adenosine deaminase (Bos taurus), P56658 (protein)
chain: MAQTPAFNKPKVELHVHLDGAIKPETILYYGRKRGIALPADTPEELQNIIGMDKPLSLPEFLAKFDYYMPAIAGCREAVKRIAYEFVEMKAKDGVVYVEVRYSPHLLANSKVEPIPWNQAEGDLTPDEVVSLVNQGLQEGERDFGVKVRSILCCMRHQPSWSSEVVELCKKYREQTVVAIDLAGDETIEGSSLFPGHVKAYAEAVKSGVHRTVHAGEVGSANVVKEAVDTLKTERLGHGYHTLEDATLYNRLRQENMHFEVCPWSSYLTGAWKPDTEHPVVRFKNDQVNYSLNTDDPLIFKSTLDTDYQMTKNEMGFTEEEFKRLNINAAKSSFLPEDEKKELLDLLYKAYGMPSPASAEQCL
As to B1, the maximum rate (Vmax) is 0.41 µM/min and 0.52 µM/min.

Usually Vmax stands for the rate approached at saturating substrate.
